Measured values as given in IntAct's records for PubMed 24358019.

B1: RNA polymerase sigma factor RpoH (Escherichia coli (strain K12)), P0AGB3 (parent)
chain: MTDKMQSLALAPVGNLDSYIRAANAWPMLSADEERALAEKLHYHGDLEAAKTLILSHLRFVVHIARNYAGYGLPQADLIQEGNIGLMKAVRRFNPEVGVRLVSFAVHWIKAEIHEYVLRNWRIVKVATTKAQRKLFFNLRKTKQRLGWFNQDEVEMVARELGVTSKDVREMESRMAAQDMTFDLSSDDDSDSQPMAPVLYLQDKSSNFADGIEDDNWEEQAANRLTDAMQGLDERSQDIIRARWLDEDNKSTLQELADRYGVSAERVRQLEKNAMKKLRAAIEA
partner: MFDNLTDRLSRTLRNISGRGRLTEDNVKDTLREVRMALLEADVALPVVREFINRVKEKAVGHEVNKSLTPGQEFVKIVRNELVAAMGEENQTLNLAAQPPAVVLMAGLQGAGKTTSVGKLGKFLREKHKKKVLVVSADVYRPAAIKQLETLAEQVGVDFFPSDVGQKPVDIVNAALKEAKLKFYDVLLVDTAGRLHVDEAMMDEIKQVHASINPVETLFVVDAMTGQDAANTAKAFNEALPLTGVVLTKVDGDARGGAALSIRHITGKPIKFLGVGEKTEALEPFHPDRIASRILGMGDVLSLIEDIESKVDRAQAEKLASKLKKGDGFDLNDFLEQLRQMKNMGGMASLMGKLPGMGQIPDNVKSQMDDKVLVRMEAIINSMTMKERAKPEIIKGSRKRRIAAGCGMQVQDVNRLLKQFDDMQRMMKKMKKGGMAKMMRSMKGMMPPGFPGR

Variants of: B1
Settings: with srp54_ecoli ffh

effect of a mutation on the interaction | Variant
decreasing interaction strength | MTDKMQSLALAPVGNLDSYIRAANAWPMLSADEERALAEKLHYHGDLEAAKTLNLSHLRFVVHIARNYAGYGLPQADLIQEGNIGLMKAVRRFNPEVGVRLVSFAVHWIKAEIHEYVLRNWRIVKVATTKAQRKLFFNLRKTKQRLGWFNQDEVEMVARELGVTSKDVREMESRMAAQDMTFDLSSDDDSDSQPMAPVLYLQDKSSNFADGIEDDNWEEQAANRLTDAMQGLDERSQDIIRARWLDEDNKSTLQELADRYGVSAERVRQLEKNAMKKLRAAIEA [I54N]
